For one assay, the target named is AT1A receptor-eYFP (UniProt P25095). As to the kind of experiment: FRET or BRET; BRET in living HEK293 cells stably expressing AT1A receptor-eYFP and transiently RLuc-CaM, CaM-RLuc or RLuc; 5 µM coelenterazine; ratio 525 nm/460 nm; with or without W7 (20 min) and/or 100 nM Ang II.
The target in the next assay is GST-ATct(297–359). As to the kind of experiment: pull-down; competition: 2 pmol GST-fusion protein incubated with bovine brain CaM (2 or 10 pmol) for 30 minutes in 20 mM Tris-HCl, 70 mM NaCl, 0.1 mM CaCl2, pH 7.5, then 2 pmol Gβγ for 1 hour; glutathione-sepharose 4B beads; immunoblot with anti-Gβ. For orientation: A western blot detects proteins with antibodies after separation by electrophoresis.

In a further assay the target is GST-ATi3(213–242). The assay is described as above.
GST-ATi3(213–242), sequence (P29754 213-242): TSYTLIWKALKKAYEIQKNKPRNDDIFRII
The target in the next assay is GST-ATctN(297–324)F309A (UniProt P25095). As to the kind of experiment: pull-down; 50 pmol GST-fusion protein with purified bovine brain CaM (50 pmol) in 250 µl of 100 mM Tris-HCl pH 7.5 with 0.1 mM CaCl2; 4°C; glutathione-sepharose 4B beads; immunoblot with anti-CaM; for the mutants density of CaM against loaded GST-fusion protein.
GST-ATctN(297–324)F309A, sequence (P25095 297-324 F309A): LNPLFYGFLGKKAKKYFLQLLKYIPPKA
The target of another assay is GST-ATctN(297–324)F313A (UniProt P25095). Described as above.
GST-ATctN(297–324)F313A, sequence (P25095 297-324 F313A): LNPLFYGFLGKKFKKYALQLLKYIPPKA
For a further assay, the target named is GST-ATi3N(213–234)W219A (UniProt P25095). Described as above.
GST-ATi3N(213–234)W219A, sequence (P25095 213-234 W219A): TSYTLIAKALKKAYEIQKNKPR

AT1A receptor-eYFP, sequence (P25095 whole entry, the tested form may be a part): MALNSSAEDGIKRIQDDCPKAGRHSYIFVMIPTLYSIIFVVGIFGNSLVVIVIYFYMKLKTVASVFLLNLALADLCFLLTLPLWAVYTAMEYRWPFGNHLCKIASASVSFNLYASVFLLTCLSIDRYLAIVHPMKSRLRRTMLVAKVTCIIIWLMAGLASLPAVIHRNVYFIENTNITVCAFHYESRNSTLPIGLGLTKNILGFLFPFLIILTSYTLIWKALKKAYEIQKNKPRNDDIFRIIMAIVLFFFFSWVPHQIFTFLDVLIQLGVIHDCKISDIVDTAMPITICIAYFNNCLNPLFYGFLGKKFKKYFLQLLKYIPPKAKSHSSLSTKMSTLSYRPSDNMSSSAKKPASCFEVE

Turning to “CaM-RLuc (from UniProt P0DP23 1-149) (natural protein)”, in the assay with AT1A receptor-eYFP, the BRET ratio with the CaM inhibitor W7, % of untreated (% of non-W7-treated) came to 40.
Consider “calmodulin purified from bovine brain (from UniProt P62157 1-149) (natural protein)”, for which, in the assay with GST-ATct(297–359), the Gβγ bound to GST-ct with 2 pmol CaM, % of no CaM amounted to 73% and the Gβγ bound to GST-ct with 10 pmol CaM, % of no CaM was found to be 34%. In the assay with GST-ATi3(213–242), this substance showed a Gβγ bound to GST-i3 loop with 2 pmol CaM, % of no CaM of 77% and a Gβγ bound to GST-i3 loop with 10 pmol CaM, % of no CaM of 60%. Besides, the relative binding efficiency, % of wild type (% of wild type) with GST-ATctN(297–324)F309A was determined as 29. The same substance yielded a relative binding efficiency, % of wild type (% of wild type) with GST-ATctN(297–324)F313A of 22. The same substance yielded a relative binding efficiency, % of wild type (% of wild type) with GST-ATi3N(213–234)W219A of 32.
